Source: PMC4116807 (Biochimica et biophysica acta, 2014)

Molecular target: the molecule itself
Assay: AUC

B1: periplasmic sensor domain of the histidine kinase CusS (CusS 39-187) (domain or fragment, Escherichia coli W3110)
chain: VKVHFAEQDINDLKEISATLERVLNHPDETQARRLMTLEDIVSGYSNVLISLADSQGKTVYHSPGAPDIREFTRDAIPDKDAQGGEVYLLSGPTMMMPGHGHGHMEHSNWRMINLPVGPLVDGKPIYTLYIALSIDFHLHYINDLMNKLEGSS
For B1, the “stoichiometry N” value was 2.
